From PMC7581431, “Feedback control of Wnt signaling based on ultrastable histidine cluster co-aggregation between Naked/NKD and Axin” (eLife, 2020)

Assays:
[1] = target: the molecule itself; assay: SEC-MALS; purified proteins and preformed complexes, Superdex-200 10/300, 2 mg/ml, 15 mM TrisHCl, 150 mM NaCl, pH 7.4
[2] = target: T1, Lip-DVL2-PDZ (human, UniProt O14641 285-373); assay: ITC; MicroCal iTC200, 15 mM Tris-HCl, 150 mM NaCl, pH 7.4; Lip-DVL2-PDZ or Lip-DVL2-PDZ-V334E (696 μM) injected into 17.2 μM RFP-NKD-EF; conditions: both partners purified
T1 construct: PDZ domain of human DVL2, residues 285-373; also called DVL2 PDZ domain; wt DVL2 PDZ domain; source: E. coli BL21DE3 pRare2, purified (NiNTA, SEC)
T1 sequence (looked up): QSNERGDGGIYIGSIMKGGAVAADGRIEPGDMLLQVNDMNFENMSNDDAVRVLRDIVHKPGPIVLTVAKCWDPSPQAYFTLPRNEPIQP

B1: RFP-NKD1-EF (domain or fragment, human, UniProt Q969G9 110-190, looked up)
chain: EPCPGSKKQLKFEELQCDVSMEEDSRQEWTFTLYDFDNNGKVTREDITSLLHTIYEVVDSSVNHSPTSSKMLRVKLTVAPD
notes: EF-hand of human NKD1, residues 110-190; Dimer by SEC-MALS (expected RFP-NKD1-EF dimer, 71.8 kDa); also called RFP-NKD-EF; NKD1 EF-hand; source: E. coli BL21DE3 pRare2, purified (NiNTA, SEC)
stoichiometry N [1]: 2
Kd [2]: 3.2 ± 0.2 µM
